In patent CN110526968A (UNIV NORTHWEST A&F, dated 2019):

Target: T1, 金黄色葡萄球菌肠毒素B (Staphylococcus aureus, UniProt P01552 28-266)
T1 construct: also called SEB
T1 sequence: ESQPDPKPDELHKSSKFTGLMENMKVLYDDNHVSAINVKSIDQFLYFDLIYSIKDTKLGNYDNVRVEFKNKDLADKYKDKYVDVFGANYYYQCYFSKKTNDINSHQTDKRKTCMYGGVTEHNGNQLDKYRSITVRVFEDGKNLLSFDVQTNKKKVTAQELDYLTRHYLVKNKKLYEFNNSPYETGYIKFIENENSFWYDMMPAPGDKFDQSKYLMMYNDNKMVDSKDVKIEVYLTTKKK
Experiment: phage ELISA on coated SEB, HRP anti-M13 detection

B1: 噬菌体克隆B7 (VHH)
VHH: ESGGGLVQAGGSLRLSCKVSGFNFREHALAWFRQAPGKEREGVSCIRGSGDYTTYADSVKGRFTISRDNAQNTLYLQMNSLRPEDTAMYYCAAARYARYYPNNCLDSAEYGYWGQGTLVTVS
notes: also called B7克隆
  binding result: binds
